Laboratory results reported in US20140087995A1 (published 2014).
Numbered stars: 1 amine (or outer) side, 2 acyl side, 3 side chain; on linkers, the order of the positions; unused ones are H or OH. Bridge positions count the residues as written; N and C are the ends. * marks the point of attachment. C20 diacid = O=C(O)CCCCCCCCCCCCCCCCCCC(=O)*; γGlu = O=C(O)[C@H](CCC(=O)[*:2])N[*:1]

Columns and labels:
[1] = target: T1, human calcitonin receptor (human, UniProt P30988 25-474); test: cell-based or functional assay
T1 sequence (looked up): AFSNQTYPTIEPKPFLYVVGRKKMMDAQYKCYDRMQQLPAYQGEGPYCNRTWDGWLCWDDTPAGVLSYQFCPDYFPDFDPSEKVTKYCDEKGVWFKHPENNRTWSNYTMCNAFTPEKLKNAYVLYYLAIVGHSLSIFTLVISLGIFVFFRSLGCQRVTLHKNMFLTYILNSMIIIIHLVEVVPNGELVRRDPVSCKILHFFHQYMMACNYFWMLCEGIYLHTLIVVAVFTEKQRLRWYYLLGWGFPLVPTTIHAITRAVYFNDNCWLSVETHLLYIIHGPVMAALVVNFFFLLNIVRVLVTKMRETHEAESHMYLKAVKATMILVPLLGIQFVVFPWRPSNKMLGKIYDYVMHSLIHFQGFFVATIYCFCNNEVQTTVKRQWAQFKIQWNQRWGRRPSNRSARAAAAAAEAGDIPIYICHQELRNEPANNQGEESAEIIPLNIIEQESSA

[2] = target: T2, human amylin receptor (amylin 3(a) receptor: human calcitonin receptor plus RAMP-3) (human, UniProt P30988 25-474; O60896 24-148, limits assumed); test: cell-based or functional assay
T2 sequence (looked up) 1: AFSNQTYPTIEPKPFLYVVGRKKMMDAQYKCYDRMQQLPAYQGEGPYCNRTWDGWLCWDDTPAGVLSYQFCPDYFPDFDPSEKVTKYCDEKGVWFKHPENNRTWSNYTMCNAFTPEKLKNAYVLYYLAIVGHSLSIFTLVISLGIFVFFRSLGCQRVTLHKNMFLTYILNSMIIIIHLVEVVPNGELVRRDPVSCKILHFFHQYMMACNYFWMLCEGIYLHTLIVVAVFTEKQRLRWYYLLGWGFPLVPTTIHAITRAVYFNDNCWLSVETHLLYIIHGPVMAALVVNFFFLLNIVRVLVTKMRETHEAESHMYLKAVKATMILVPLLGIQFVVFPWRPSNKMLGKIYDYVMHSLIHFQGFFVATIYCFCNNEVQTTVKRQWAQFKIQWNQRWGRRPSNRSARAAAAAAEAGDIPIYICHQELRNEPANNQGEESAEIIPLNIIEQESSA
T2 sequence (looked up) 2: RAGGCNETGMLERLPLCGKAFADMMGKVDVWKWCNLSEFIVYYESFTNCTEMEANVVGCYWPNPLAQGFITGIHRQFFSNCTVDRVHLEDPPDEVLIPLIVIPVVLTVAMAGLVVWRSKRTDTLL

B1: N^α1-[(4S)-4-carboxy-4-(19-carboxynonadecanoylamino)butanoyl]-[Arg17,Pro21,Pro27,Pro31,Glu35]-h-amylin (peptide)
peptide: {C20 diacid-γGlu}-KCNTATCATQRLANFLRHSSPNFGAIPSSTPVGSETY-NH2
modifications: disulfide 2-7
SMILES: CC[C@H](C)[C@H](NC(=O)[C@H](C)NC(=O)CNC(=O)[C@H](Cc1ccccc1)NC(=O)[C@H](CC(N)=O)NC(=O)[C@@H]1CCCN1C(=O)[C@H](CO)NC(=O)[C@H](CO)NC(=O)[C@H](Cc1c[nH]cn1)NC(=O)[C@H](CCCNC(=N)N)NC(=O)[C@H](CC(C)C)NC(=O)[C@H](Cc1ccccc1)NC(=O)[C@H](CC(N)=O)NC(=O)[C@H](C)NC(=O)[C@H](CC(C)C)NC(=O)[C@H](CCCNC(=N)N)NC(=O)[C@H](CCC(N)=O)NC(=O)[C@@H](NC(=O)[C@H](C)NC(=O)[C@@H]1CSSC[C@H](NC(=O)[C@H](CCCCN)NC(=O)CC[C@H](NC(=O)CCCCCCCCCCCCCCCCCCC(=O)O)C(=O)O)C(=O)N[C@@H](CC(N)=O)C(=O)N[C@@H]([C@@H](C)O)C(=O)N[C@@H](C)C(=O)N[C@@H]([C@@H](C)O)C(=O)N1)[C@@H](C)O)C(=O)N1CCC[C@H]1C(=O)N[C@@H](CO)C(=O)N[C@@H](CO)C(=O)N[C@H](C(=O)N1CCC[C@H]1C(=O)N[C@H](C(=O)NCC(=O)N[C@@H](CO)C(=O)N[C@@H](CCC(=O)O)C(=O)N[C@H](C(=O)N[C@@H](Cc1ccc(O)cc1)C(N)=O)[C@@H](C)O)C(C)C)[C@@H](C)O
notes: also called compound 28
Ratio hCT/hAmylin funct. (hCTR EC50 against hAmylin-R EC50) [1]: 9.2 | hCTR funct. EC50 [1]: 2.03 nM | hAmylin-R funct. EC50 [2]: 0.22 nM

B2: N^α1-[(4S)-4-carboxy-4-(19-carboxynonadecanoylamino)butanoyl]-[Glu14,Arg17,Pro21,Pro27,Arg35]-h-amylin (peptide)
peptide: {C20 diacid-γGlu}-KCNTATCATQRLAEFLRHSSPNFGAIPSSTNVGSRTY-NH2
modifications: disulfide 2-7
SMILES: CC[C@H](C)[C@H](NC(=O)[C@H](C)NC(=O)CNC(=O)[C@H](Cc1ccccc1)NC(=O)[C@H](CC(N)=O)NC(=O)[C@@H]1CCCN1C(=O)[C@H](CO)NC(=O)[C@H](CO)NC(=O)[C@H](Cc1c[nH]cn1)NC(=O)[C@H](CCCNC(=N)N)NC(=O)[C@H](CC(C)C)NC(=O)[C@H](Cc1ccccc1)NC(=O)[C@H](CCC(=O)O)NC(=O)[C@H](C)NC(=O)[C@H](CC(C)C)NC(=O)[C@H](CCCNC(=N)N)NC(=O)[C@H](CCC(N)=O)NC(=O)[C@@H](NC(=O)[C@H](C)NC(=O)[C@@H]1CSSC[C@H](NC(=O)[C@H](CCCCN)NC(=O)CC[C@H](NC(=O)CCCCCCCCCCCCCCCCCCC(=O)O)C(=O)O)C(=O)N[C@@H](CC(N)=O)C(=O)N[C@@H]([C@@H](C)O)C(=O)N[C@@H](C)C(=O)N[C@@H]([C@@H](C)O)C(=O)N1)[C@@H](C)O)C(=O)N1CCC[C@H]1C(=O)N[C@@H](CO)C(=O)N[C@@H](CO)C(=O)N[C@H](C(=O)N[C@@H](CC(N)=O)C(=O)N[C@H](C(=O)NCC(=O)N[C@@H](CO)C(=O)N[C@@H](CCCNC(=N)N)C(=O)N[C@H](C(=O)N[C@@H](Cc1ccc(O)cc1)C(N)=O)[C@@H](C)O)C(C)C)[C@@H](C)O
notes: also called compound 16
Ratio hCT/hAmylin funct. (hCTR EC50 against hAmylin-R EC50) [1]: 6.1 | hCTR funct. EC50 [1]: 2.21 nM | hAmylin-R funct. EC50 [2]: 0.363 nM
